Measured values taken from IntAct's records for PubMed 18715118.

B1: Metallothionein expression activator (Saccharomyces cerevisiae), P21192 (parent)
chain: MDNVVDPWYINPSGFAKDTQDEEYVQHHDNVNPTIPPPDNYILNNENDDGLDNLLGMDYYNIDDLLTQELRDLDIPLVPSPKTGDGSSDKKNIDRTWNLGDENNKVSHYSKKSMSSHKRGLSGTAIFGFLGHNKTLSISSLQQSILNMSKDPQPMELINELGNHNTVKNNNDDFDHIRENDGENSYLSQVLLKQQEELRIALEKQKEVNEKLEKQLRDNQIQQEKLRKVLEEQEEVAQKLVSGATNSNSKPGSPVILKTPAMQNGRMKDNAIIVTTNSANGGYQFPPPTLISPRMSNTSINGSPSRKYHRQRYPNKSPESNGLNLFSSNSGYLRDSELLSFSPQNYNLNLDGLTYNDHNNTSDKNNNDKKNSTGDNIFRLFEKTSPGGLSISPRINGNSLRSPFLVGTDKSRDDRYAAGTFTPRTQLSPIHKKRESVVSTVSTISQLQDDTEPIHMRNTQNPTLRNANALASSSVLPPIPGSSNNTPIKNSLPQKHVFQHTPVKAPPKNGSNLAPLLNAPDLTDHQLEIKTPIRNNSHCEVESYPQVPPVTHDIHKSPTLHSTSPLPDEIIPRTTPMKITKKPTTLPPGTIDQYVKELPDKLFECLYPNCNKVFKRRYNIRSHIQTHLQDRPYSCDFPGCTKAFVRNHDLIRHKISHNAKKYICPCGKRFNREDALMVHRSRMICTGGKKLEHSINKKLTSPKKSLLDSPHDTSPVKETIARDKDGSVLMKMEEQLRDDMRKHGLLDPPPSTAAHEQNSNRTLSNETDAL

Variants of: B1
Settings: with xpo1_yeast CRM1, P30822

Variant	effect of a mutation on the interaction
S122D;S137D	disrupting interaction
F127V	disrupting interaction
S137D	decreasing interaction
S122D	decreasing interaction

Variants of: B1
Settings: with cbk1_yeast CBK1, P53894
Sequence of cbk1_yeast CBK1, P53894 (P53894 whole entry): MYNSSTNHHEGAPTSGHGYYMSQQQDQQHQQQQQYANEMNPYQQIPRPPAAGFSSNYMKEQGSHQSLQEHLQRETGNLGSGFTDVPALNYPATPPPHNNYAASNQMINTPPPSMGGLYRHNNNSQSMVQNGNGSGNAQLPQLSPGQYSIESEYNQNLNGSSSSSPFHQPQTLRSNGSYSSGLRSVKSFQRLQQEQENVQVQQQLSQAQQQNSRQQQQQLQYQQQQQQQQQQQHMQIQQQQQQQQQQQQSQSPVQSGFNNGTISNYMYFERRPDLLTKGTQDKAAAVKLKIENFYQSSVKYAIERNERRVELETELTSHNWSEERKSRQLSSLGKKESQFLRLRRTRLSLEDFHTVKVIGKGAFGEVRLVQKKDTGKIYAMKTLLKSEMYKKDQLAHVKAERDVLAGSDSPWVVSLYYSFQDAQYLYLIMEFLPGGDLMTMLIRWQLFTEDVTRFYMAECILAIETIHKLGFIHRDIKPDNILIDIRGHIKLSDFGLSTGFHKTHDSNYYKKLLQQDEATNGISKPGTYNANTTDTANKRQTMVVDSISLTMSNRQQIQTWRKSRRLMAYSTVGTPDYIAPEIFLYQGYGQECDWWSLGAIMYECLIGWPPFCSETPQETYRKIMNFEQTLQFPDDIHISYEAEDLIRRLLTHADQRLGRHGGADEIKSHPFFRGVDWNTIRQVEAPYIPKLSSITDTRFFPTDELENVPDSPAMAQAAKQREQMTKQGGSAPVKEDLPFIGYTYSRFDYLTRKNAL

Variant	effect of a mutation on the interaction
S113A;S122A;S137A	disrupting interaction
S113A;H117A;S137A	disrupting interaction

Variants of: B1
Settings: with xpo1_yeast CRM1, P30822
Remark: another data set of the same source

Variant	effect of a mutation on the interaction
F127V	decreasing interaction
